Results as given in publication PMC3344845 (2012).

Biological target: chicken avidin (Gallus gallus (Chicken), UniProt P02701)
Test: ITC

Sequence of chicken avidin (P02701 25-152): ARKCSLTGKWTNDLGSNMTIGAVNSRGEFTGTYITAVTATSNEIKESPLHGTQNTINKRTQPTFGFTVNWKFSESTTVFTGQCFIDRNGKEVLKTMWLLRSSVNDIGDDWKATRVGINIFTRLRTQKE

- binding result: no binding
Binder: SEKLSNTK (protein) [Brad-tag (synthetic peptide SEKLSNTK)]
